Data as given in US20180194841A1 (Regeneron, published 2018).

T1: His-tagged human FcγRIIA (H131) (human, UniProt P12318 36-218, limits assumed)
T1 construct: His-tagged, captured on anti-penta-histidine chip; also called hFcyRIIA (H131); FcRγIIA
T1 sequence (looked up): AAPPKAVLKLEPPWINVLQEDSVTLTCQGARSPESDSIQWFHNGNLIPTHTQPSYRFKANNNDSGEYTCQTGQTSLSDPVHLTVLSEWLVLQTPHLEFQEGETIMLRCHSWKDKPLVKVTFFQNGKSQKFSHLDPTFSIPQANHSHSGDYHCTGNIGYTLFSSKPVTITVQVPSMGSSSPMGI

T2: His-tagged human FcγRIIA (R131) (human, UniProt P12318 36-218, limits assumed)
T2 construct: His-tagged, captured on anti-penta-histidine chip; also called human FcyRIIA (R131); FcRγIIA
T2 sequence (looked up): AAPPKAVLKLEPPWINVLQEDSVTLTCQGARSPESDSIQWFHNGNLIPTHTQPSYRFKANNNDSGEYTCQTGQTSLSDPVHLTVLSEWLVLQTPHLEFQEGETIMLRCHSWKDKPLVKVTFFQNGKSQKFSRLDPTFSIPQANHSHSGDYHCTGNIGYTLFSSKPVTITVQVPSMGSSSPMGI

T3: His-tagged cynomolgus FcγRIIA (cynomolgus, UniProt A0A140HDN0 28-215)
T3 construct: His-tagged, captured on anti-penta-histidine chip; also called cyno FcyRIIA
T3 sequence: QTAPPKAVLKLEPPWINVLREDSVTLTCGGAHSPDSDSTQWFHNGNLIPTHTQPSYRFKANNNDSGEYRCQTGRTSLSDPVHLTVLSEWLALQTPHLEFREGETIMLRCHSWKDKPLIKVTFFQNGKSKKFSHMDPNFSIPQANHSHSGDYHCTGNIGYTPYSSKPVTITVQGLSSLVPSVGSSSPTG

T4: His-tagged human FcγRIIB (human, UniProt P31994 46-217, limits assumed)
T4 construct: His-tagged, captured on anti-penta-histidine chip; also called human FcyRIIB; FcRγIIB
T4 sequence (looked up): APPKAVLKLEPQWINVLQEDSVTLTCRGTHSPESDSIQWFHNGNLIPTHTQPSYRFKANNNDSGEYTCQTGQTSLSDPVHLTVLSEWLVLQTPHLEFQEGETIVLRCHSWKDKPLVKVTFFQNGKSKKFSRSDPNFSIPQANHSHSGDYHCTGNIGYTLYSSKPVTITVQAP

T5: His-tagged cynomolgus FcγRIIB (cynomolgus, UniProt A0A140HDP4 43-217)
T5 construct: His-tagged, captured on anti-penta-histidine chip; also called cyno FcyRIIB
T5 sequence: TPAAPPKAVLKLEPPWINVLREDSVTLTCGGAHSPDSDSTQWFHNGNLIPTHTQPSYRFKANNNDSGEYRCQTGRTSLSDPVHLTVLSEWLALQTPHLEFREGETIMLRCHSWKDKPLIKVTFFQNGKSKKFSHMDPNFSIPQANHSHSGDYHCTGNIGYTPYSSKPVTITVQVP

T6: human CD20 (on Raji cells, CD3-, CD20+ human B-cell line; on B16F10.9/CD20 cells) (human, UniProt P11836 1-297)
T6 sequence (looked up): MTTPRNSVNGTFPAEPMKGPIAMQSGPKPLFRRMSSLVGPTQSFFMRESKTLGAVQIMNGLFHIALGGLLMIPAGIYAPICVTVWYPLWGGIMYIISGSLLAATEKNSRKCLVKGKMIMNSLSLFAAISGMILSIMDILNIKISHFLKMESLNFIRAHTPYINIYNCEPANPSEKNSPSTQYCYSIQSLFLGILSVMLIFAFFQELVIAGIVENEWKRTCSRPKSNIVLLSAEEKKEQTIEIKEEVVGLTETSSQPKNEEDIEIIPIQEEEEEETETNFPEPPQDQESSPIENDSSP


What was measured:
[1] = target: T1, His-tagged human FcγRIIA (H131); assay: SPR steady-state, 25 C, His-tagged FcγR captured, antibody injected
Method: (§1) The anti-CD3×anti-CD20 bispecific antibodies having chimeric constant heavy chain regions Antibody 1 and Antibody 4 were analyzed using Surface Plasmon Resonance (SPR) (Biacore) technology to determine their kinetic binding parameters to human and cynomolgus Fcγ receptors.
(§2) Briefly, SPR experiments were performed at 25° C. on a Biacore T200 instrument employing a carboxymethyl dextran-coated (CM-5) chip. A mouse monoclonal anti-penta-histidine antibody (GE Healthcare) was immobilized on the surface of the CM-5 sensor chip using standard amine-coupling chemistry. […] Kinetic association (kₐ) and dissociation (kd) rate constants were determined by processing and fitting the data to a 1:1 binding model using Scrubber 2.0 curve fitting software. Binding dissociation equilibrium constants (KD) and dissociative half-lives (t_{1/2}) were calculated from the kinetic rate constants as: KD (M)=kd/kₐ; and t_{1/2} (min)=(ln 2/(60*kd).

[2] = target: T2, His-tagged human FcγRIIA (R131); assay: as above
Method: as §1, §2

[3] = target: T3, His-tagged cynomolgus FcγRIIA; assay: as above
Method: as §1, §2

His-tagged human FcγRIIB = target: T4, His-tagged human FcγRIIB; assay: as above
Method: as §1, §2

[4] = target: T5, His-tagged cynomolgus FcγRIIB; assay: as above
Method: as §1, §2

[5] = target: T7, His-tagged cynomolgus FcγRIIIA (cynomolgus, UniProt Q8SPW2 17-208, limits assumed); assay: as above
T7 construct: His-tagged, captured on anti-penta-histidine chip; also called cyno FcyRIIIA
T7 sequence (Q8SPW2 17-208 limits assumed): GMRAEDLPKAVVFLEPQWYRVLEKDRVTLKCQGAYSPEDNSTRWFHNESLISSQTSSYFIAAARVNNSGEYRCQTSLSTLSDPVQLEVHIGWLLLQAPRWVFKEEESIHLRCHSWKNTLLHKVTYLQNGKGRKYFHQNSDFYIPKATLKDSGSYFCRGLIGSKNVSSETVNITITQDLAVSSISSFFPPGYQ
Method: as §1, §2

[6] = target: T6, human CD20 (on Raji cells, CD3-, CD20+ …); assay: cell-based or functional assay
[7] = target: T6, human CD20 (on Raji cells, CD3-, CD20+ …); assay: cell-based or functional assay; remark: listed apart in the source

Kd [1] [µM]	Kd [2] [µM]	Kd [3] [µM]	Kd (His-tagged human FcγRIIB) [µM]	Kd [4] [µM]	Kd [5] [µM]	Binder	Raji Cytotoxicity Activated Human T-cells [M] (EC50, calcein release) [6]	Raji Cytotoxicity Activated Monkey T-cells [M] (EC50, calcein release) [6]	% Survival B16F10.9/CD20 cells [M] (EC50, FACS, naive human PBMC effectors, 48 h) [7]
11.7	20.5	23.5	233	14.6	42.4	Antibody 2 (CD3×CD20-chimericFc bispecific antibody) (bispecific antibody, also called Ab 2) heavy 1: EVQLVESGGGLVQPGRSLRLSCVASGFTFNDYAMHWVRQAPGKGLEWVSVISWNSDSIGYADSVKGRFTISRDNAKNSLYLQMHSLRAEDTALYYCAKDNHYGSGSYYYYQYGMDVWGQGTTVTVSSASTKGPSVFPLAPSSKSTSGGTAALGCLVKDYFPEPVTVSWNSGALTSGVHTFPAVLQSSGLYSLSSVVTVPSSSLGTQTYICNVNHKPSNTKVDKKVEPKSCDKTHTCPPCPAPPVAGPSVFLFPPKPKDTLMISRTPEVTCVVVDVSQEDPEVQFNWYVDGVEVHNAKTKPREEQFNSTYRVVSVLTVLHQDWLNGKEYKCKVSNKGLPSSIEKTISKAKGQPREPQVYTLPPSRDELTKNQVSLTCLVKGFYPSDIAVEWESNGQPENNYKTTPPVLDSDGSFFLYSKLTVDKSRWQQGNVFSCSVMHEALHNHYTQKSLSLSPGK heavy 2: EVQLVESGGGLVQPGRSLRLSCAASGFTFDDYTMHWVRQAPGKGLEWVSGISWNSGSIGYADSVKGRFTISRDNAKKSLYLQMNSLRAEDTALYYCAKDNSGYGHYYYGMDVWGQGTTVTVASASTKGPSVFPLAPSSKSTSGGTAALGCLVKDYFPEPVTVSWNSGALTSGVHTFPAVLQSSGLYSLSSVVTVPSSSLGTQTYICNVNHKPSNTKVDKKVEPKSCDKTHTCPPCPAPPVAGPSVFLFPPKPKDTLMISRTPEVTCVVVDVSQEDPEVQFNWYVDGVEVHNAKTKPREEQFNSTYRVVSVLTVLHQDWLNGKEYKCKVSNKGLPSSIEKTISKAKGQPREPQVYTLPPSRDELTKNQVSLTCLVKGFYPSDIAVEWESNGQPENNYKTTPPVLDSDGSFFLYSKLTVDKSRWQQGNVFSCSVMHEALHNRFTQKSLSLSPGK light: not shown			
12	19.3	23.1	123	13.9	66.3	Antibody 1 (CD3×CD20-chimericFc bispecific antibody) (bispecific antibody, also called Ab 1; Ab1) heavy 1: EVQLVESGGGLVQPGRSLRLSCVASGFTFNDYAMHWVRQAPGKGLEWVSVISWNSDSIGYADSVKGRFTISRDNAKNSLYLQMHSLRAEDTALYYCAKDNHYGSGSYYYYQYGMDVWGQGTTVTVSSASTKGPSVFPLAPCSRSTSESTAALGCLVKDYFPEPVTVSWNSGALTSGVHTFPAVLQSSGLYSLSSVVTVPSSSLGTKTYTCNVDHKPSNTKVDKRVESKYGPPCPPCPAPPVAGPSVFLFPPKPKDTLMISRTPEVTCVVVDVSQEDPEVQFNWYVDGVEVHNAKTKPREEQFNSTYRVVSVLTVLHQDWLNGKEYKCKVSNKGLPSSIEKTISKAKGQPREPQVYTLPPSQEEMTKNQVSLTCLVKGFYPSDIAVEWESNGQPENNYKTTPPVLDSDGSFFLYSRLTVDKSRWQEGNVFSCSVMHEALHNHYTQKSLSLSLGK heavy 2: EVQLVESGGGLVQPGRSLRLSCAASGFTFDDYTMHWVRQAPGKGLEWVSGISWNSGSIGYADSVKGRFTISRDNAKKSLYLQMNSLRAEDTALYYCAKDNSGYGHYYYGMDVWGQGTTVTVASASTKGPSVFPLAPCSRSTSESTAALGCLVKDYFPEPVTVSWNSGALTSGVHTFPAVLQSSGLYSLSSVVTVPSSSLGTKTYTCNVDHKPSNTKVDKRVESKYGPPCPPCPAPPVAGPSVFLFPPKPKDTLMISRTPEVTCVVVDVSQEDPEVQFNWYVDGVEVHNAKTKPREEQFNSTYRVVSVLTVLHQDWLNGKEYKCKVSNKGLPSSIEKTISKAKGQPREPQVYTLPPSQEEMTKNQVSLTCLVKGFYPSDIAVEWESNGQPENNYKTTPPVLDSDGSFFLYSRLTVDKSRWQEGNVFSCSVMHEALHNRFTQKSLSLSLGK light: not shown	2.5e-11	9.1e-12	1.95e-11
